Columns and labels:
Assay in all cases: ELISA
[1] = biological target: RSV F clamp (respiratory syncytial virus A2) (UniProt P03420)
[2] = biological target: RSV FxG (respiratory syncytial virus A2 | respiratory syncytial virus (strain not stated for G)) (UniProt P03423)
RSV sG = biological target: RSV sG
[3] = biological target: NiV FxG (Nipah virus (Malaysia strain) | Nipah virus) (UniProt Q9IH63)
Chain of NiV FxG (Nipah virus (Malaysia strain) | Nipah virus) (Q9IH63 whole entry, looked up): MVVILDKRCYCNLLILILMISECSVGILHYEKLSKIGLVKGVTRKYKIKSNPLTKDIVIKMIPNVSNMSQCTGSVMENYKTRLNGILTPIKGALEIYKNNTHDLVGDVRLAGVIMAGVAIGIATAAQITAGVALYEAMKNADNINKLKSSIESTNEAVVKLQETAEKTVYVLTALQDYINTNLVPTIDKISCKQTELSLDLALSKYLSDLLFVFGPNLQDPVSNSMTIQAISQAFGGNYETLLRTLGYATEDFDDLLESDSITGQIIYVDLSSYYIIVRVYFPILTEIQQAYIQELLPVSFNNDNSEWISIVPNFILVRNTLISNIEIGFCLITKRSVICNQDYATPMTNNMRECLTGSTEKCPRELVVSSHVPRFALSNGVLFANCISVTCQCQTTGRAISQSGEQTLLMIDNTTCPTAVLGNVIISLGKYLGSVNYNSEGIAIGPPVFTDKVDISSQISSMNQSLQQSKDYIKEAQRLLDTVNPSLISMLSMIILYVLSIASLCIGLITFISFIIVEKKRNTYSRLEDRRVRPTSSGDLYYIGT

Chain of RSV F clamp (respiratory syncytial virus A2) (P03420 whole entry, looked up): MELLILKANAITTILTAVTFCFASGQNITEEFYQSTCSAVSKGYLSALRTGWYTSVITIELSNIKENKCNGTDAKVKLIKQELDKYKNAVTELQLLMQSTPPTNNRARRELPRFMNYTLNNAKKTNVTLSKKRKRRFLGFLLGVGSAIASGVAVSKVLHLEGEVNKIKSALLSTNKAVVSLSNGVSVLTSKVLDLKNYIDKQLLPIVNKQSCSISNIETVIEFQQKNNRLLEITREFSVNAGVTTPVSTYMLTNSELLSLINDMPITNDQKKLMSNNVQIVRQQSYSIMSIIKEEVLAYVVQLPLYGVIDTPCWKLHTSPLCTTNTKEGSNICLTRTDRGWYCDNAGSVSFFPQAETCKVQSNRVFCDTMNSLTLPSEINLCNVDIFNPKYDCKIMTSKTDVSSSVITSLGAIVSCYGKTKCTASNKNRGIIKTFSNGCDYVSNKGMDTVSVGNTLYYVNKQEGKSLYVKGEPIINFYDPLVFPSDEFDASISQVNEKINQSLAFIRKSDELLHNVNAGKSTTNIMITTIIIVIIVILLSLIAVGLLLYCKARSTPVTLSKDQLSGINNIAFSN
Chain of RSV FxG (respiratory syncytial virus A2 | respiratory syncytial virus (strain not stated for G)) (P03423 whole entry): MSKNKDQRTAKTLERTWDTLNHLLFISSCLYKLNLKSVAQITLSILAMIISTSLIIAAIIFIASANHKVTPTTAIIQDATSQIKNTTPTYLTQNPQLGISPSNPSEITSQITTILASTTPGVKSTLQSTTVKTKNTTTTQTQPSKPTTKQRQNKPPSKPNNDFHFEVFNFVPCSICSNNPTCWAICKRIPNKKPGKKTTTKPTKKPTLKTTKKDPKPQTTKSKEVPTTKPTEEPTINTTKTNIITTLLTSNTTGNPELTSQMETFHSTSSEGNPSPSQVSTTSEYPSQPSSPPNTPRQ

Row | Substance | Kd [1] [nM] | Kd [2] [nM] | Kd (RSV sG) [nM] | Kd [3] [nM]
1 | MPE8 | 0.64 | 0.42 |  | 
2 | D25 | 0.97 | 0.48 |  | 
3 | 3D3 |  | 0.43 | 2.11 | 
4 | Mota | 0.21 | 0.26 |  | 
5 | 2D10 |  | 0.41 | 1.29 | 
6 | m102.4 |  |  |  | 0.17

Reference: paper PMC8537613
